The values that follow come from publication doi:10.1101/2025.11.17.688911.

The target in assay [1] is surface-immobilized biotinylated microtubules, Q2XVP4;Q767L7. The assay can be described thus: fluorescence intensity of GFP-tagged MAP9 on MTs (fluorescence microscopy). The settings on record: 100 mM salt (stated for panel d); parent: est. 2.8; read off a plot.
Assay [2] has the same target. The assay can be described thus: fluorescence intensity of GFP-tagged MAP9-MTBD on surface-immobilized MTs (fluorescence microscopy). As to conditions: 100 nM MAP9 construct (stated for panel h and Extended Data Fig. 6b); parent: est. 0.72; read off a plot.

As to “MAP9-MTBD (Human MAP9 (302–647)::GFP::strepII) (from UniProt Q49MG5) LHEMHRIK>LAEMHAIK; …>…; LKEKNRK>LAEKNAK; FKQKEKEK>FAQKEAEK; ERIERKQ>EAIERAQ”, the response in assay [1] amounted to 2.8 a.u.

On to “MAP9-MTBD (Human MAP9 (302–647)::GFP::strepII) (from UniProt Q49MG5) Y429A; W432A; K436A; F473A; W476A; K480A”, for which the response in assay [2] was 0.05 a.u.
